Tests used:
[1] = biological target: enolase, native, from Francisella novicida (Francisella novicida); test: cryo-EM structure
[2] = biological target: riboflavin biosynthesis protein D (RibD), native, from Francisella novicida (Francisella novicida); test: cryo-EM structure

Substance	stoichiometry N [1]	stoichiometry N [2]
enolase, native, from Francisella novicida (enzyme)	2	
riboflavin biosynthesis protein D (RibD), native, from Francisella novicida (enzyme)		2
